# According to patent US8541175B2, “Detection of molecular interactions using a reduced affinity enzyme complementation reporter system” (The Board of Trustees of the Leland Stanford Junior …, priority 2006, dated 2013):
# Key:
# Assay type in all cases: cell-based
# ErbB2 homodimers = biological target: T1, ErbB2 homodimers (Homo sapiens, UniProt P04626); assay: Low affinity β-gal complementation, ErbB2ω-ErbB2α* homodimerization; details: ligand for 45 min; 20,000 cells per well
# T1 construct: ErbB2 (aa 1-686); expressed in transfected cells; host or cells: C2C12 cells, retroviral transduction
# From the text: To perform a quantitative comparison of the different pairs of receptors, receptor expression level in cells was controlled, as the amount of β-gal fusion protein affects β-gal enzyme activity (FIG. 2). To this end, two parental cell lines were constructed using C2C12 cells in which ErbB family members are expressed at very low levels (S. Corti et al., Exp Cell Res 268, 36 (Aug. 1, 2001)). These cells were engineered to express either the ErbB2-ω or the EGFR-ω fusion proteins. Each of the ω-expressing parental cell lines were then split and transduced with each of three constructs encoding different α-fusion proteins, EGFR-α*, ErbB2-α*, and ErbB3-α*. Because the cells were generated from the same parental line, they expressed equivalent amounts of ω. To allow measurement of α* chimeric protein expression levels, YFP was included in each construct, between the ErbB receptor and the α*. […] YFP was imaged by confocal microscopy to ensure that the receptor fusion proteins were appropriately localized to the plasma membrane, which is essential to their function (FIG. 3).
# Cells were returned to a 37° C.
# Isoproterenol, propranolol and rapamycin were from Sigma.
# [1] = biological target: EGFR homodimers in the presence of excess ErbB2 (Homo sapiens, UniProt P04626); assay: EGFR homodimerization in EGFRα*-EGFRω cell line overexpressing wild-type ErbB2; details: EGFRα*-EGFRω cells overexpressing wild-type ErbB2; increasing concentrations of EGF
# From the text: As a test of this hypothesis, the wildtype ErbB2 lacking a β-gal fragment was overexpressed in the EGFRα*-EGFRω cell line. […] This disruption allowed EGFRα* and EGFRω to interact and homodimerize.
# EGFR and ErbB2 = EGFR and ErbB2 (Homo sapiens, UniProt P04626); assay: Low affinity β-gal complementation, EGFR-ErbB2 heterodimerization; details: for loss of β-gal activity (heterodimer dissociation) after removal of ligand: EGFRω-ErbB2α* cells, ligand added, then washout
# From the text: To perform a quantitative comparison of the different pairs of receptors, receptor expression level in cells was controlled, as the amount of β-gal fusion protein affects β-gal enzyme activity (FIG. 2). […] These cells were engineered to express either the ErbB2-ω or the EGFR-ω fusion proteins. Each of the ω-expressing parental cell lines were then split and transduced with each of three constructs encoding different α-fusion proteins, EGFR-α*, ErbB2-α*, and ErbB3-α*. Because the cells were generated from the same parental line, they expressed equivalent amounts of ω. To allow measurement of α* chimeric protein expression levels, YFP was included in each construct, between the ErbB receptor and the α*.
Substance,response of ErbB2ω-ErbB2α* cells to ligand (β-gal activity) (ErbB2 homodimers),"β-gal activity in response to EGF, no antibody [1]",EGFRω-ErbB2α* heterodimer formation over time (enzyme activity) (EGFR and ErbB2; 100 ng/ml EGF),loss of β-gal activity (heterodimer dissociation) after removal of ligand (EGFR and ErbB2),"ligand-induced heterodimerization of EGFR with ErbB2 (β-gal activity) (EGFR and ErbB2; ligand for 45 min, 20,000 cells per well)"
"EGF: recombinant human EGF from Peprotech, ligand that binds the EGFR",not responsive,failed to stimulate β-gal activity,time-dependent increase in enzyme activity,β-gal activity decreased over time,heterodimerization of EGFR with ErbB2
"TGF-α: recombinant human TGF-α from Peprotech, EGFR ligand",,,,signal decayed more rapidly following TGF-α than after EGF exposure,
